Source: article PMC9482650, “Quantitative fragmentomics allow affinity mapping of interactomes” (Nature Communications, 2022)

T1: NHERF3_4, Q5T2W1
T1 sequence (Q5T2W1 373-468, limits assumed, looked up): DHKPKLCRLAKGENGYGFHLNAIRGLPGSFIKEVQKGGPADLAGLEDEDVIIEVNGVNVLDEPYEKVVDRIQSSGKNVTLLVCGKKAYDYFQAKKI

T2: MPP2, Q14168
T2 sequence (Q14168 180-250, limits assumed, looked up): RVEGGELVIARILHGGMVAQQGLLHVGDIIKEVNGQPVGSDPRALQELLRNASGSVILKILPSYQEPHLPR

T3: PCLO, Q9Y6V0
T3 sequence (Q9Y6V0 4491-4600, limits assumed, looked up): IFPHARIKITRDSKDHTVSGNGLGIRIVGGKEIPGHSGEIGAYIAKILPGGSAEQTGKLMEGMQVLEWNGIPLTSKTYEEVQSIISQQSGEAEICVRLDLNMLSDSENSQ

T4: TX1BP3, O14907
T4 sequence (O14907 10-122, limits assumed, looked up): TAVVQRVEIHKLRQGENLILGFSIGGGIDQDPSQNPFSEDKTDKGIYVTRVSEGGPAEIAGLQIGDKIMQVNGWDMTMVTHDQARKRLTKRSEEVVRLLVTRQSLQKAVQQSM

T5: HTRA4, P83105
T5 sequence (P83105 378-476, limits assumed, looked up): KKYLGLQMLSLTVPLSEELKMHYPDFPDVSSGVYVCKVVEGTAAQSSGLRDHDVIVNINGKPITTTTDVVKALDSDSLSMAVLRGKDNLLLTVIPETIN

T6: RADIL, Q96JH8
T6 sequence (Q96JH8 971-1071, limits assumed, looked up): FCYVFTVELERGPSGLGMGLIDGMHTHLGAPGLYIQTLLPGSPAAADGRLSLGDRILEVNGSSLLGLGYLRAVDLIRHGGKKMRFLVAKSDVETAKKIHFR

T7: MPDZ_10, O75970
T7 sequence (O75970 1624-1722, limits assumed, looked up): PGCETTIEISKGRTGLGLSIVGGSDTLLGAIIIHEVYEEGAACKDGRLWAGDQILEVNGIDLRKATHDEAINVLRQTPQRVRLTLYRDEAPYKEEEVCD

T8: ARHGEF11, O15085
T8 sequence (O15085 42-136, limits assumed, looked up): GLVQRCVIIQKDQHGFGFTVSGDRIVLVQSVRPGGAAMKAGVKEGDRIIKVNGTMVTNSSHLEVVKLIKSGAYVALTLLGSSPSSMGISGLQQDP

T9: LNX2_2, Q8N448
T9 sequence (Q8N448 334-432, limits assumed, looked up): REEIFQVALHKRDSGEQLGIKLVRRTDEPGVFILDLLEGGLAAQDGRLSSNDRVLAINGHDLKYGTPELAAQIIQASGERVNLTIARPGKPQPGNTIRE

T10: LIN7A, O14910
T10 sequence (O14910 103-200, limits assumed, looked up): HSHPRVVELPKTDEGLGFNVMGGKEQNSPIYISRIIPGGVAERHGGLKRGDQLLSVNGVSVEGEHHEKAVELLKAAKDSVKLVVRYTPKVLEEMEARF

T11: DFNB31_1, Q9P202
T11 sequence (Q9P202 135-233, limits assumed, looked up): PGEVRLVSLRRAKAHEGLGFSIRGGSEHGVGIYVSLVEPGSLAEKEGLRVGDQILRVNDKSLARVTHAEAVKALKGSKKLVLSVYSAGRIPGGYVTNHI

T12: GRIP1_7, Q9Y3R0
T12 sequence (Q9Y3R0 999-1096, limits assumed, looked up): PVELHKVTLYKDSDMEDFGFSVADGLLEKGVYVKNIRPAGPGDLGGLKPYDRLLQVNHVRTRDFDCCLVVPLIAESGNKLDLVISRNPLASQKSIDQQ


Tests used:
Test in all cases: holdup assay
Design in all cases: key: below the threshold = too weak to quantify, mostly under pKd 3.1 to 4
Details in all cases: plain residues with an end cap or a label only (N-terminal biotin on a linker: ado-ado)
FRMPD2_2, Q68DX3 = biological target: FRMPD2_2, Q68DX3
TJP1_2, Q07157 = biological target: TJP1_2, Q07157
Inadl_5, Q8NI35 = biological target: Inadl_5, Q8NI35
NHERF3_4, Q5T2W1 = biological target: T1, NHERF3_4, Q5T2W1
MPP2, Q14168 = biological target: T2, MPP2, Q14168
Inadl_10, Q8NI35 = biological target: Inadl_10, Q8NI35
PCLO, Q9Y6V0 = biological target: T3, PCLO, Q9Y6V0
IL16_3, Q14005 = biological target: IL16_3, Q14005
TJP2_1, Q9UDY2 = biological target: TJP2_1, Q9UDY2
MAGI3_2, Q5TCQ9 = biological target: MAGI3_2, Q5TCQ9
TX1BP3, O14907 = biological target: T4, TX1BP3, O14907
HTRA4, P83105 = biological target: T5, HTRA4, P83105
LNX1_3, Q8TBB1 = biological target: LNX1_3, Q8TBB1
RADIL, Q96JH8 = biological target: T6, RADIL, Q96JH8
FRMPD2_1, Q68DX3 = biological target: FRMPD2_1, Q68DX3
GOPC, Q9HD26 = biological target: GOPC, Q9HD26
Inadl_9, Q8NI35 = biological target: Inadl_9, Q8NI35
MPDZ_10, O75970 = biological target: T7, MPDZ_10, O75970
ARHGEF11, O15085 = biological target: T8, ARHGEF11, O15085
MAGI1_1, Q96QZ7 = biological target: MAGI1_1, Q96QZ7
LNX2_2, Q8N448 = biological target: T9, LNX2_2, Q8N448
LIN7A, O14910 = biological target: T10, LIN7A, O14910
MAGI1_2, Q96QZ7 = biological target: MAGI1_2, Q96QZ7
DFNB31_1, Q9P202 = biological target: T11, DFNB31_1, Q9P202
GRIP1_7, Q9Y3R0 = biological target: T12, GRIP1_7, Q9Y3R0

Sequence of FRMPD2_1, Q68DX3 (Q68DX3 770-861): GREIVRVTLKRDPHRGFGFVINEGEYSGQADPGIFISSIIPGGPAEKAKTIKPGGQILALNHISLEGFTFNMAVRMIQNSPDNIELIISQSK
Sequence of TJP1_2, Q07157 (Q07157 181-274): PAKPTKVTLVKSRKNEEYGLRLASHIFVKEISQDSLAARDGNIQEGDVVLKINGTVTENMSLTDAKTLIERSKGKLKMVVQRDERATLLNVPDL
Sequence of TJP2_1, Q9UDY2 (Q9UDY2 24-128): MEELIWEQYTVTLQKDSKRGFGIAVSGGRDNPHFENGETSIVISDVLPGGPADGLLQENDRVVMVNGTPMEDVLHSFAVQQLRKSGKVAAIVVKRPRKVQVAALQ
Sequence of IL16_3, Q14005 (Q14005 1107-1207): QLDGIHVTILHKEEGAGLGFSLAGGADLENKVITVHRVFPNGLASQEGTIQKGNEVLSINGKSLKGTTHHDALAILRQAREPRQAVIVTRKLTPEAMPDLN
Sequence of LNX1_3, Q8TBB1 (Q8TBB1 500-596): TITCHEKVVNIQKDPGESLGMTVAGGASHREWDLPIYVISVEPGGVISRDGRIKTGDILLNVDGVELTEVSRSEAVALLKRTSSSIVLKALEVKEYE
Sequence of FRMPD2_2, Q68DX3 (Q68DX3 944-1038): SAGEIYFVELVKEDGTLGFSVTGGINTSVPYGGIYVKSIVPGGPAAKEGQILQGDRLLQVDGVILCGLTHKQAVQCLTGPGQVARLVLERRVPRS
Sequence of Inadl_10, Q8NI35 (Q8NI35 1673-1763): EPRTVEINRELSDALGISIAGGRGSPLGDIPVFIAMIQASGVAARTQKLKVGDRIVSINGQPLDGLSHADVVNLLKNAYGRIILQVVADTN
Sequence of MAGI1_2, Q96QZ7 (Q96QZ7 456-580): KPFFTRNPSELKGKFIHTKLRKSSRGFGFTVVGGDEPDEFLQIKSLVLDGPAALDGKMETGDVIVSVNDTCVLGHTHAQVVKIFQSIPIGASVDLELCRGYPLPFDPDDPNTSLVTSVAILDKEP
Sequence of MAGI1_1, Q96QZ7 (Q96QZ7 1-106): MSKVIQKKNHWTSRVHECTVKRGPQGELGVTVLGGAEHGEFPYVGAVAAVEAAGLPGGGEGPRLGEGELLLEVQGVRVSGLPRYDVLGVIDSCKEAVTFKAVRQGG
Sequence of Inadl_9, Q8NI35 (Q8NI35 1530-1615): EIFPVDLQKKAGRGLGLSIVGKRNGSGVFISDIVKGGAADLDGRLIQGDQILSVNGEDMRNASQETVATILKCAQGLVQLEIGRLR
Sequence of Inadl_5, Q8NI35 (Q8NI35 673-780): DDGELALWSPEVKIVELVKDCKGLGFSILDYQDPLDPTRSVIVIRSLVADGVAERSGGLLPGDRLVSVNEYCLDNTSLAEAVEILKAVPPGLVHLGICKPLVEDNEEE
Sequence of MAGI3_2, Q5TCQ9 (Q5TCQ9 398-503): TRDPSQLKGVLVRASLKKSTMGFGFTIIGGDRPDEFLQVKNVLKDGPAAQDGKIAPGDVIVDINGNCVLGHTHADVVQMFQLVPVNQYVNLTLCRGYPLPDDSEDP

Binder	pKd (FRMPD2_2, Q68DX3)	pKd (TJP1_2, Q07157)	pKd (Inadl_5, Q8NI35)	pKd (NHERF3_4, Q5T2W1)	pKd (MPP2, Q14168)	pKd (Inadl_10, Q8NI35)	pKd (PCLO, Q9Y6V0)	pKd (IL16_3, Q14005)	pKd (TJP2_1, Q9UDY2)	pKd (MAGI3_2, Q5TCQ9)	pKd (TX1BP3, O14907)	pKd (HTRA4, P83105)	pKd (LNX1_3, Q8TBB1)	pKd (RADIL, Q96JH8)	pKd (FRMPD2_1, Q68DX3)	pKd (GOPC, Q9HD26)	pKd (Inadl_9, Q8NI35)	pKd (MPDZ_10, O75970)	pKd (ARHGEF11, O15085)	pKd (MAGI1_1, Q96QZ7)	also measured
RHGSCVETSL [TMEM151B, Q8IW70]	3.57	below the threshold	below the threshold	3.95	below the threshold	below the threshold	below the threshold	below the threshold	below the threshold	4.06	4.8	below the threshold	below the threshold	below the threshold	below the threshold	4.41	below the threshold	below the threshold	4.41	below the threshold	pKd (LNX2_2, Q8N448): below the threshold; pKd (LIN7A, O14910): 4.04; pKd (MAGI1_2, Q96QZ7): 3.76; pKd (DFNB31_1, Q9P202): 4.61; pKd (GRIP1_7, Q9Y3R0): below the threshold
QMNQTLPVQV [EPHB3, P54753]	below the threshold	3.72	4.1	3.48	below the threshold	below the threshold	below the threshold	below the threshold	below the threshold	below the threshold	below the threshold	4.36	3.61	4.44	4.36	3.58	4.34	3.49	4.36	below the threshold	pKd (LNX2_2, Q8N448): 5.12; pKd (LIN7A, O14910): below the threshold; pKd (MAGI1_2, Q96QZ7): below the threshold; pKd (DFNB31_1, Q9P202): 3.51; pKd (GRIP1_7, Q9Y3R0): below the threshold
IPLDGETEEL [MYOZ1, Q9NP98]	below the threshold	below the threshold	below the threshold	below the threshold	below the threshold	below the threshold	below the threshold	below the threshold	below the threshold	below the threshold	below the threshold	below the threshold	below the threshold	below the threshold	below the threshold	below the threshold	below the threshold	below the threshold	3.82	below the threshold	pKd (LNX2_2, Q8N448): below the threshold; pKd (LIN7A, O14910): below the threshold; pKd (MAGI1_2, Q96QZ7): below the threshold; pKd (DFNB31_1, Q9P202): below the threshold; pKd (GRIP1_7, Q9Y3R0): below the threshold

Second part, led by results:

pKd (FRMPD2_2, Q68DX3)	pKd (TJP1_2, Q07157)	pKd (Inadl_5, Q8NI35)	pKd (NHERF3_4, Q5T2W1)	pKd (MPP2, Q14168)	pKd (Inadl_10, Q8NI35)	pKd (PCLO, Q9Y6V0)	pKd (IL16_3, Q14005)	pKd (TJP2_1, Q9UDY2)	pKd (MAGI3_2, Q5TCQ9)	pKd (TX1BP3, O14907)	pKd (HTRA4, P83105)	pKd (LNX1_3, Q8TBB1)	pKd (RADIL, Q96JH8)	pKd (FRMPD2_1, Q68DX3)	pKd (GOPC, Q9HD26)	pKd (Inadl_9, Q8NI35)	pKd (MPDZ_10, O75970)	pKd (ARHGEF11, O15085)	pKd (MAGI1_1, Q96QZ7)	Binder	also measured
below the threshold	below the threshold	below the threshold	below the threshold	below the threshold	below the threshold	below the threshold	below the threshold	below the threshold	below the threshold	below the threshold	4.97	below the threshold	4.02	below the threshold	below the threshold	3.48	below the threshold	4.07	below the threshold	DDEDRLVIEI [ZNF831, Q5JPB2]	pKd (LNX2_2, Q8N448): 4.76; pKd (LIN7A, O14910): below the threshold; pKd (MAGI1_2, Q96QZ7): below the threshold; pKd (DFNB31_1, Q9P202): below the threshold; pKd (GRIP1_7, Q9Y3R0): below the threshold
3.8	below the threshold	below the threshold	below the threshold	below the threshold	below the threshold	below the threshold	below the threshold	below the threshold	5.24	5.72	3.92	below the threshold	3.67	below the threshold	3.85	below the threshold	below the threshold	3.55	below the threshold	PKRSFIESNV [TANC1, Q9C0D5]	pKd (LNX2_2, Q8N448): below the threshold; pKd (LIN7A, O14910): 3.49; pKd (MAGI1_2, Q96QZ7): 4.37; pKd (DFNB31_1, Q9P202): 3.83; pKd (GRIP1_7, Q9Y3R0): below the threshold
below the threshold	below the threshold	4.86	below the threshold	below the threshold	below the threshold	below the threshold	below the threshold	below the threshold	4.73	below the threshold	below the threshold	3.96	4.82	3.89	below the threshold	3.65	below the threshold	below the threshold	below the threshold	QSLNRMEYIV [JAG1, P78504]	pKd (LNX2_2, Q8N448): 5.4; pKd (LIN7A, O14910): below the threshold; pKd (MAGI1_2, Q96QZ7): below the threshold; pKd (DFNB31_1, Q9P202): below the threshold; pKd (GRIP1_7, Q9Y3R0): below the threshold
